This note sets out measurements from PMC7705443 (Cell Research, 2020).

Experiment [1] has as its target SARS-CoV-2 RBD (residues 319-541), C-terminal his-tag (SARS-CoV-2, Wuhan-Hu-1 (MN908947.3), UniProt P0DTC2). The experiment is described as follows: SPR. The settings on record: both partners purified.
Experiment [2] deals with SARS-CoV RBD (residues 306-527), C-terminal his-tag (SARS-CoV (GenBank NC_004718.3, Tor2), UniProt P59594). Briefly: SPR. The note with it: both partners purified.

B1: P17 antibody (full-length IgG1) (antibody, V domains shown)
VH: QQLVESGGGVVQPGRSLRLSCAASGFTFSSYAMHWVRQAPGKGLEWVAVISYDGSNKYYADSVKGRFTISRDNSKNTLYLQMNSLRAEDTAVYYCARHATLMNNKDIWGQGTLVTVSS
VL: not shown
notes: also called NAb P17
One may read the Kd as the concentration at which binding is half-saturated. A low value points to tighter binding. On to B1, for which, in experiment [1], the Kd amounted to 0.096 nM. The binding result in experiment [2] is “no binding”.
